Data from patent US20190315847A1 (UNIVERSITY OF PITTSBURGH OF THE COMMONWEALTH SYSTEM OF …, published 2019).

Target: T1, insulin like growth factor 1 receptor (IGF1R) (human, UniProt P08069 31-736; P08069 741-1367)
T1 construct: Endogenous IGF1R in MCF-7 and T47D breast cancer cells; also called IGF1 receptor; IGFR1
Assay: in situ proximity ligation assay (Duolink), MCF-7 and T47D cells
Experimental: In situ proximity ligation assay (PLA) was used to analyze the direct interaction between IGF1R and E-cadherin in breast cancer cells. MCF-7 (FIG. 7A) and T47D (FIG. 7B) cells were plated on coverslips, fixed, and stained with IGF1R and E-cadherin antibody overnight. The Duolink (Sigma) protocol was followed and coverslips were imaged using confocal microscopy to reveal red puncta. MCF-7 cells transfected with anti-CDH1 siRNA (siCDH1; FIG. 7C) or anti-IGF1R siRNA (siIGF1R; FIG. 7D) were used as negative controls for the assay to assess primary antibody specificity. […] All puncta and nuclei in 60× images were counted. One-way ANOVA was used to determine significant difference between groups (p<0.05; one independent experiment, n=5 images per slide counted). Further, IGF1R (green; second column from left) and E-cadherin (red; third column from left) were analyzed for co-localization (merge; fourth column from left) by immunofluorescence staining in MCF-7 cells transfected with siSCR (FIG. 7J) or siCDH1 (FIG. 7K). […]
Cells were plated on coverslips and fixed in 4% paraformaldehyde for 30 minutes at 37° C. […] The ratio of puncta/nuclei for each experimental condition was calculated by counting all puncta and nuclei in five 60× images.

T1 sequence (P08069 31-736, chain 1 of 2): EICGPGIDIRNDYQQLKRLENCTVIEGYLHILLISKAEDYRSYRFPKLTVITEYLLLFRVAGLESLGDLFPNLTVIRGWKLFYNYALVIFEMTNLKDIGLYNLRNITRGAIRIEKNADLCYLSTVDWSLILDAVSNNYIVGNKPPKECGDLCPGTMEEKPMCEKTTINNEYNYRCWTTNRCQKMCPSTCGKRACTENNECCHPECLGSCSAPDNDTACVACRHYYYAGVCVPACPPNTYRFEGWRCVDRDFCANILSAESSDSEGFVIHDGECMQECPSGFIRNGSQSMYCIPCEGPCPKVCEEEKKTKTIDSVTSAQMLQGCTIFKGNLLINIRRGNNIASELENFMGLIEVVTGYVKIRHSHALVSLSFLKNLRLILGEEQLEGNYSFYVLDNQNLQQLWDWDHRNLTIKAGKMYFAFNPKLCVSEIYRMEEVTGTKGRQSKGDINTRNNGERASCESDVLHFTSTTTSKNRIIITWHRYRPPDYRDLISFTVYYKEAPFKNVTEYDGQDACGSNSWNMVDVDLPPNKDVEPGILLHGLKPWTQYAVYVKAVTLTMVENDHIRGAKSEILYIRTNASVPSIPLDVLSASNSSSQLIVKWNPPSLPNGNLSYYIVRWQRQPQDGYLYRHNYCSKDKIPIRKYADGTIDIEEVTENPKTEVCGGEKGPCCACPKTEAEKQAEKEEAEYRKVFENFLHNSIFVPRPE
T1 sequence (P08069 741-1367, chain 2 of 2): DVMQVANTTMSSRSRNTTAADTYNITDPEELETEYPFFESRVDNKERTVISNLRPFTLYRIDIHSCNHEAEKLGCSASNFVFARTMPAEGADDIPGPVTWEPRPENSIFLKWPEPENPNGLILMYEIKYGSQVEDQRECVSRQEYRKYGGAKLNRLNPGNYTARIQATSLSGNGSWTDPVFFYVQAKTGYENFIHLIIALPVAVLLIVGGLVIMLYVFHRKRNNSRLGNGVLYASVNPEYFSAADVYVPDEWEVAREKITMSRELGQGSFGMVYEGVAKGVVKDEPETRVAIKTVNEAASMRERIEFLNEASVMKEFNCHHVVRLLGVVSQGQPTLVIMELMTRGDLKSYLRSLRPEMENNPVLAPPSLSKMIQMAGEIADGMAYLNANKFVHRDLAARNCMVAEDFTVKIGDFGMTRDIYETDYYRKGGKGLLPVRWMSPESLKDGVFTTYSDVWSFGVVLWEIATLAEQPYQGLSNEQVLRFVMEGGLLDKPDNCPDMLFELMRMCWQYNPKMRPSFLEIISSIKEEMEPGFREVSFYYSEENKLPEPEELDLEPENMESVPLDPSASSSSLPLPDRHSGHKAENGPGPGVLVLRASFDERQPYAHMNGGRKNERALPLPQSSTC

B1: E-cadherin (CDH1) (other)
chain: DWVIPPISCPENEKGPFPKNLVQIKSNKDKEGKVFYSITGQGADTPPVGVFIIERETGWLKVTEPLDRERIATYTLFSHAVSSNGNAVEDPMEILITVTDQNDNKPEFTQEVFKGSVMEGALPGTSVMEVTATDADDDVNTYNAAIAYTILSQDPELPDKNMFTINRNTGVISVVTTGLDRESFPTYTLVVQAADLQGEGLSTTATAVITVTDTNDNPPIFNPTTYKGQVPENEANVVITTLKVTDADAPNTPAWEAVYTILNDDGGQFVVTTNPVNNDGILKTAKGLDFEAKQQYILHVAVTNVVPFEVSLTTSTATVTVDVLDVNEAPIFVPPEKRVEVSEDFGVGQEITSYTAQEPDTFMEQKITYRIWRDTANWLEINPDTGAISTRAELDREDFEHVKNSTYTALIIATDNGSPVATGTGTLLLILSDVNDNAPIPEPRTIFFCERNPKPQVINIIDADLPPNTSPFTAELTHGASANWTIQYNDPTQESIILKPKMALEVGDYKINLKLMDNQNKDQVTTLEVSVCDCEGAAGVCRKAQPVEAGLQIPAILGILGGILALLILILLLLLFLRRRAVVKEPLLPPEDDTRDNVYYYDEEGGGEEDQDFDLSQLHRGLDARPEVTRNDVAPTLMSVPRYLPRPANPDEIGNFIDENLKAADTDPTAPPYDSLLVFDYEGSGSEAASLSSLNSSESDKDQDYDYLNEWGNRFKKLADMYGGGEDD
notes: Endogenous E-cadherin in MCF-7 and T47D breast cancer cells; also called epithelial cadherin; CD324
binding result: binds
